Measurements taken from patent US8927230B2, “C-terminal modification of polypeptides” (EUCODIS Bioscience GmbH, priority 2004, dated 2015).

Biological target: T1, N^α-benzoylated peptides of SEQ ID NOs: 2-18 (Rattus norvegicus, UniProt P00763, D194K/E154H/K66E/N146H)
T1 construct: made in house; host or cells: E. coli or yeast (general procedure; the host actually used is not fixed)
T1 sequence (P00763 24-246 K66E/N146H/E154H/D194K): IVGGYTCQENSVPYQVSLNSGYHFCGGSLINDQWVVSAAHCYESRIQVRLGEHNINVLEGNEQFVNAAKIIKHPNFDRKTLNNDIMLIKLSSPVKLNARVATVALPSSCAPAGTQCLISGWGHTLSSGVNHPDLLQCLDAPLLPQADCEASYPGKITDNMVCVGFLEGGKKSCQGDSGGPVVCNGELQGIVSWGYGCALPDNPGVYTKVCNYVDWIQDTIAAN
Test: Influence of the recognition sequence on the rate of reaction catalyzed by the trypsin variant (HPLC, peptide consumption)
Type: biochemical
Conditions: 1 mM peptide, 20 μM trypsin variant, 100 μM ZnCl2, 0.1 M Pipes/Tris-buffer pH 8.0, 30° C.
Source text: Variant trypsin according to the present invention has been tested for catalytic activity upon peptide substrates with different peptide sequences at or close to the cleavage site. The initial rate (v) of peptide consumption is given in nM/min
The N^α-benzoylated peptides of SEQ ID NOs: 2-18 have been synthesized by conventional solid-phase peptide synthesis using Fmoc-chemistry and a preloaded Wang-resin. The respective amino acid building blocks are commercially available and were purchased from various suppliers.
1 ml reaction volume containing 1 mM N^α-benzoylated peptide dissolved in 0.1 M Pipes/Tris-buffer pH 8.0; 20 μM trypsin variant Tn K60E, E151H, N143H, D189K; 100 μM ZnCl2 was stirred at 30° C. After defined time intervals, the reactions were terminated by adding of 1% trifluoroacetic acid in methanol/water (1:1, v/v). The quenched reaction mixtures were analyzed by analytical HPLC. The identity of the final products was verified by mass spectroscopy.

B1: Tn K60E, E151H, N143H, D189K: mutated anionic rat trypsin II, without signal sequence and pro-sequence (SEQ ID NO: 1), with K60E, N143H, E151H, D189K (protein)
chain: T1 sequence (P00763 24-246 K66E/N146H/E154H/D194K)
B1 was tested, and the “cleavage site preference (substrate specificity from initial rates of peptide consumption, FIG. 4)” value was “strong preference for a cleavage site comprising L, F or Y in position P1, R or K in position P1′ and His in position P2′”.
